Laboratory results taken from US11833164B2, “Methods of treating Fabry disease in patients having a mutation in the GLA gene” (Amicus Therapeutics, Inc., priority 2019, dated 2023).
Numbering of substitutions follows the chain as printed. Numbers in names are those of the source.

B1: A370P (protein)
chain: MQLRNPELHLGCALALRFLALVSWDIPGARALDNGLARTPTMGWLHWERFMCNLDCQEEPDSCISEKLFMEMAELMVSEGWKDAGYEYLCIDDCWMAPQRDSEGRLQADPQRFPHGIRQLANYVHSKGLKLGIYADVGNKTCAGFPGSFGYYDIDAQTFADWGVDLLKFDGCYCDSLENLADGYKHMSLALNRTGRSIVYSCEWPLYMWPFQKPNYTEIRQYCNHWRNFADIDDSWKSIKSILDWTSFNQERIVDVAGPGGWNDPDMLVIGNFGLSWNQQVTQMALWAIMAAPLFMSNDLRHISPQAKALLQDKDVIAINQDPLGKQGYQLRQGDNFEVWERPLSGLAWAVAMINRQEIGGPRSYTIAVPSLGKGVACNPACFITQLLPVKRKLGFYEWTSRLRSHINPTGTVLLQLENTMQMSLKDLL
B2: A377G (protein)
chain: B1 chain with P370A, A377G
B3: K374I (protein)
chain: B1 chain with P370A, K374I
B4: A370V (protein)
chain: B1 chain with P370V
B5: A370T (protein)
chain: B1 chain with P370T
B6: K374T (protein)
chain: B1 chain with P370A, K374T
B7: A377P (protein)
chain: B1 chain with P370A, A377P
B8: K374R (protein)
chain: B1 chain with P370A, K374R
B9: S371C (protein)
chain: B1 chain with P370A, S371C
B10: V376M (protein)
chain: B1 chain with P370A, V376M
B11: V376E (protein)
chain: B1 chain with P370A, V376E
B12: V376G (protein)
chain: B1 chain with P370A, V376G
B13: S371T (protein)
chain: B1 chain with P370A, S371T
B14: G375R (protein)
chain: B1 chain with P370A, G375R
B15: G373C (protein)
chain: B1 chain with P370A, G373C
B16: V376L (protein)
chain: B1 chain with P370A, V376L
B17: K374E (protein)
chain: B1 chain with P370A, K374E
B18: G373A (protein)
chain: B1 chain with P370A, G373A

Test system: mutant form of α-Gal A expressed in HEK-293 cells
Assay: HEK assay (GLP HEK / Migalastat Amenability Assay): α-Gal A activity in lysates of transiently transfected HEK-293 cells incubated with or without 10 μM migalastat
Assay type: cell-based, human
Conditions: for Absolute increase (% WT) / Relative increase: 10 μM migalastat versus baseline; for Baseline α-Gal A activity (% WT): absence of migalastat; for Baseline α-Gal A activity (% WT) / 10 μM migalastat α-Gal A activity (% WT): percentage of baseline wild-type α-Gal A activity; for Baseline α-Gal A activity (% WT) / Baseline α-Gal A activity / 10 μM migalastat α-Gal A activity / 10 μM migalastat α-Gal A activity (% WT): mean ± SEM; for Baseline α-Gal A activity / 10 μM migalastat α-Gal A activity: lysates of HEK-293 cells transiently transfected with the mutant form; for Baseline α-Gal A activity: incubated 5 days in absence of migalastat; for 10 μM migalastat α-Gal A activity: incubated 5 days with 10 μM migalastat; for 10 μM migalastat α-Gal A activity (% WT): with 10 μM migalastat, 5 days
Outline: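 Activity reported as 4-MU released (nmol/mg/hr), mean±SEM, from lysates of transiently transfected HEK-293 cells expressing mutant α-Gal A, cultured with or without 10 μM migalastat.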

Molecule | Absolute increase (% WT) | Relative increase | Baseline α-Gal A activity (% WT) | Baseline α-Gal A activity [nmol/mg/h] | 10 μM migalastat α-Gal A activity [nmol/mg/h] | 10 μM migalastat α-Gal A activity (% WT)
B1 | 16.9 | 1.5 | 33.9 ± 2.8 | 10431 ± 975 | 15618 ± 1776 | 50.7 ± 5.4
B2 | 16.1 | 1.2 | 71.6 ± 2.5 | 26583 ± 1072 | 32517 ± 981 | 87.7 ± 2.3
B3 | 21.9 | 2.0 | 22.3 ± 1.3 | 8194 ± 506 | 16076 ± 936 | 44.2 ± 2.9
B4 | 20.6 | 1.5 | 40.1 ± 3.1 | 15754 ± 1222 | 24151 ± 1591 | 60.7 ± 3.5
B5 | 17.6 | 1.2 | 79.9 ± 4.3 | 25024 ± 1951 | 30276 ± 2364 | 97.5 ± 6.1
B6 | 30.2 | 1.6 | 46.1 ± 2.8 | 16418 ± 1050 | 26614 ± 1659 | 76.2 ± 5.7
B7 | 17.2 | 1.3 | 59.4 ± 2.6 | 21842 ± 930 | 28189 ± 1292 | 76.6 ± 3.5
B8 | 17.9 | 1.2 | 74.3 ± 4.8 | 27984 ± 2321 | 34403 ± 2426 | 92.2 ± 4.9
B9 | 11.1 | 1.4 | 23.5 ± 1.3 | 10189 ± 1078 | 14546 ± 1141 | 34.7 ± 1.6
B10 | 20.1 | 1.3 | 79.3 ± 2.7 | 27547 ± 1431 | 34563 ± 1762 | 99.4 ± 3.2
B11 | 21.9 | 1.4 | 74 ± 4.6 | 22992 ± 924 | 30929 ± 1635 | 95.9 ± 3.8
B12 | 28.9 | 1.3 | 93.9 ± 4.6 | 33903 ± 2255 | 44774 ± 2982 | 122.9 ± 5.6
B13 | 26.1 | 1.3 | 65 ± 3.3 | 27962 ± 2785 | 37065 ± 2351 | 91.1 ± 5
B14 | 18.7 | 1.4 | 41.7 ± 1.9 | 15302 ± 1157 | 22033 ± 1442 | 60.4 ± 2.1
B15 | 8.7 | 3.2 | 4.3 ± 0.2 | 1744 ± 92 | 5543 ± 547 | 13 ± 0.9
B16 | 19.9 | 1.3 | 82.4 ± 3.4 | 27275 ± 1181 | 34152 ± 1845 | 102.3 ± 4.2
B17 | 14.1 | 1.3 | 49.9 ± 3.6 | 19699 ± 1718 | 24879 ± 2423 | 64 ± 5.7
B18 | 12.4 | 1.3 | 40.8 ± 1.5 | 14426 ± 630 | 18622 ± 1289 | 53.2 ± 3.7
